# According to the nanobody polyreactivity screen of Harvey et al. (2022):
# Test: yeast display, Sf9 membrane polyspecificity reagent, FACS + sequencing; frameworks hold sequencing errors
# Procedure, shortened: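 A nanobody's polyreactivity label depends on the gate it was sorted from. Yeast display cells were stained with 10% biotinylated, detergent-solubilized Sf9 membrane reagent for 1 hour at 4 °C, enriched on streptavidin microbeads and sorted by FACS. The low and high (top ~1%) gates were set on anti-HA fluorescence for expression and streptavidin fluorescence for reagent binding.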
row,Sequence,polyreactivity (PSR sort gate)
1,QVQLVESGGGLVQAGGSLRLSCAASGFTFKSYGMGWYRQAPGKERELVAAISKSGGRTYYADSVKGRFTISRDNAKNTVYLQMNSLKPEDTAVYYCAARVYGVDGYGYWGQGTQVTVSS,high polyreactivity
2,QVQLVESGGGLVQAGGSLRLSCAASGSIFRRYAMGWYRQAPGKEREFVAAITRSGGGTYYADSVKGRFTISRDNAKNTVYLQMNSLKPEDSAVYYCAKDVFVQRSRYPEGDYWGQGTQVTVSS,high polyreactivity
3,QVQLVESGGGLVQAGGSLRLSCAASGFTFRTNAMGWYRQAPGKERELVAAISRSGGSTYYADSVKGRFTISRDNAKNTVYLQMNSLKPEDTAVYYCATVKVSHRRYDYWGQGTQVTLSS,high polyreactivity
4,QVQLVESGGGFVQAGRSLRISSAPSGLMFLGKAMGWYRPAPGKERDLVGGIRALGGTTSYAYSVKGRFTISRDNAKNTVFLQLICKKPEDTELYVCAASYVSSRYFVLRHGDYYWGKGTQVTVSS,low polyreactivity
5,QVQIVESGGGLVQAGGSLRLSCAASGFTIPPYTMGWYRQAPRKEREFVATITASGGSTYYADSVKGRFTISRDNAKNTVYLQMNSLNPEDTAVYYCNADYYSLYFFAWYRTNDFWGQGTQVTVSS,low polyreactivity
6,QVQLEESGGGLVQAGGSLSLTCAASGRTFFTYAMGWYRQAPGKERELVAAIRWTGGRTTYADSVKARFSISRDNAKNTVYLQMISLKPEDTAVYYCAARVGRTYASYSTGNYYWGQGTQVTVSS,high polyreactivity
7,QVQLVESGGGLVQAGGSLRLSCAASGFIFSYYTMGWYRQAPGKERELVAAISRRGGSTYYADSVQGRFTISRDNAKNTVYLQRNSLKPEDTAVYYCAAPRDWDAGDYWGQGTQVTVSS,high polyreactivity
8,QVQLVESGGGLVQAGGSLRLSCAASGSTFSGYAMGWYRQAPGKERELVAGIRLDGSRTYYADSVKGRFTISRDNAKNTVYLQMNSLKPEDTAVYYCAAPSGTYWTRREYWGQGSQVTVSS,low polyreactivity
9,QVHLVESVGGLVQAGGSLRLSCAASGSIFLRYGMGWYRQAPGKERELVASISSSGGSTYYADSVKGRFTISRDNAKNTVYLQMNSLKPEDTAVYYCAADVPGARVSYWTSSGWHYDYCGQGTQVTVSS,high polyreactivity
10,QVQLVESGGGLVQAGGSLRLSCAASGNTFDVYAMGWYRQAPGKEREFVARISGRVGSTYYADSVKGRFTISRDNAKNTVYLQMNSLKPEDTAVYYCAARGRVKYVYGGFGYWGQGTQVTVSS,high polyreactivity
11,QVQLVESGGGLVQAGGSLRLSCAASGSTFRRYAMGWYRQAPGKEREISTSDGSTYYADSVKGRFTISRDNAKNTVYLQMNSLKPEDTAVYYCAADGYRQLIEDITDDYWGQGTQVTVSS,low polyreactivity
12,QVHLVESGGGLVQAGGSLRLSCAASGSIFSLYAMGWYRQAPGKERELVAAITRSGAGTYYADSVKGRFTISRDNAKNTVYLQLNSLKPEDTAVYYCANRTKTPTGYVWGGYDYWGQGTQVTVSS,high polyreactivity
13,QVQLVESGGGLVQAGGSLRLICAASGIIFYRYAMGWYRQAPGKEREFVAAISRGGGSTYYADSVKGRFTISRDNAKNTVYLQMNSLKPEDTAVYYCNARVTRVTVDQYSIKSMDYWGQGTQVTVSS,high polyreactivity
14,QVQLVESGGGLVQAGGNLRLSCAASGIILYRYAMGWYRQAHGKERELVAAISRRGGSTYYADSVKGRFTISRDNAKNSVYLQMNSLKPEDTAVYYCAAYYRGYAYYYWGQGTQVTVSS,high polyreactivity
15,QVQLVESCGVLVQAGGSLRLSCAASGFILYGNAMGWYRQAHGKERELVAAISRRGGSTYYADSVKGRFTISRDNAKNTVYLQMNSLKPEDTAVYYCAKDGPGGGTRIYDYWGLGTQVTVSS,high polyreactivity
16,QVQLQESGGGLVQAGGTITLGYDMGWYRQAPGKEREFVAGIDTGAITYYADSVKGRFTNSRDNAKNTVYLQMNCLKPEDTAVYYCAAIQTHTYAHSYWGQGNQVTVSS,high polyreactivity

row,Sequence,polyreactivity (PSR sort gate)
1,QVQLVESGGGLVQAGGSLRLSCAASGSIIRKYAMGWYRQAHGKERELVAAISRRTGNTYYADSVKGRFTISRDNAKNTVYLQMNSLKPEDTAVYYCAADYYSSSSWSEVDSWGQGTQVTVSS,high polyreactivity
2,QVQLVESGGGLVQAGGSLRLSCAASGFTFGIYAMGWYRQAPGKERELVAAITSGGITKYADSVKGRFTISRDNAKNTVYLQMNSLKPEDTAVYYCAATGYRQSYDSTWYRYDYWGQGTQVTVSS,low polyreactivity
3,QVHLVESRGGLVQAGGSLRLSCAASGYTFGHYALGWYRHAPGKERELVAVITSGGSTNYADSEKGRFTISRDNAKNNVYLQMKSLKPEETAVYYCAADLYFYYVWLRDYWGQGTQVTVSS,low polyreactivity
4,QVQLVESGAGLVQAGGSLRLSCAASGSIFWWNALGWYRQAPGKQRELVAAINWSTGRTYYADSVKGRFTISRDNAKNTVYLQMISLKPEDTAVYYCAACFVGDLGYEYWGQGTQVTVSS,low polyreactivity
5,QVQLVESGGGLVQAGGSLRLSCAASGRIFYSYTMGWYRQAPGKERELVAGINRSVGSTYYADSVKGRFTISRDNAKNTVYLQMNSLKPEDTAVYYCAAGSRRRSYYTFSSVHGHYYWGQVTQVTVSS,high polyreactivity
6,QVQLVESGGGLVQAGGSLRLSCAASGSTFPTNTMGWYRQAPGKERELVAAITGGGSTYYADSVKGRFTISRDNAKNTVYLQMNSLKPEDTAVYYCAADDSWFYYGYGYWGQGTQVTVSS,low polyreactivity
7,QVQLVESGGGLVQAGGSLRLSCAASGFIFYNALGWYRQAPGKERELVAAISSGGNTNYADSVKGRFTISRDNAKNTVYLQMNSLKPEDTAVYYCNAGLYQYDGWANYIRYDYWGQGTQVTVSS,low polyreactivity
8,QVQLVESGGGLVQAGGSLRLSCAASGRIFFANTMGWYRQAPGKERELVAAISLSSGTTYYADSVKGRFTISRDNAKNTVYLQMNSLKPDETAVYYCAARGYSHVASRLYYYWGQGTQVTVSS,high polyreactivity
9,QVQLVESGGGLVQAGGSLRLSCAASGIIFDSYAMGWYRQAPGKERELVAAITSDSGRTYYADSVKGRFTISRDNAKNTVYLQMNSLKPEDTAVYYCAKRWDGPYDYWGHGTQVTVSS,low polyreactivity
10,QVQLVESGGGLVQAGGSLRLSCAASGFTFIKYAMGWYRQATGNEREFVATISWNGGNTYYADSVKGRFTISRDNAKNTVYLQMNSLKPEDTAVYYCAARVKYRTRGGTVVSYDYWGQGTQVTVSS,high polyreactivity
11,QVQLVESGGGLVQAGGSLRLSCAASGSTFKFNTMGWYRQAPGKERELVAAISWRGGSTYYADSVKGRFTISRDNAKNTVYLQMYSLKPEDTAFYYCAAPWYIRYDSWGQGTQVTVSS,high polyreactivity
12,QVQLVESGGGLVQAGGSLRLSCAASGRIFENNAMGWYRQAPGKERELVAAITSGGSTYYADSVKGRFTISRDNAKNTVYLQMNSLKPEDTAVYYCNVTFRVDPWTRTGYDYWGQGTQVTVSS,high polyreactivity
13,QVQLVESGGGLVQAGGSLRLSCAASGSTFGWYAMGWYRQAPGKERELVASITWDGGRTYYAHSVKGRFTISRDNAKNTVYLQMNSLKPEDTAVYYCAARGVSSPLNYWGQGSQVTVSS,low polyreactivity
14,QVQLVESGGGLVQAGCSLRLSCAASGFIFVFNAMGWYRQAPGKERELVAAINGGDITNYADSVKGRFTISRDNAKNTVYLQMNSMKPEDTAVYYCNADGYYFLISNANTLGYWGQGTQVNVSS,low polyreactivity
15,QVQLVESGGGLVQAGGSLRLSCAASGLILVGNTMGWYRQAPGKERELVATITSGGRTYYADSVKGRFTISRDNAKNTVYLQMNSLKPEDTAVYYCAKRAFSYVGGQQDRKENYYYWGQGTQVTVSS,high polyreactivity
